Assay results: publication PMC11148769

Target: BA.2.12.1 S trimer (SARS-CoV-2) (UniProt P0DTC2)
Test: cryo-EM structure

Substance: BA.2.12.1 S trimer (from UniProt P0DTC2 28-1208) (natural protein)
- stoichiometry N: 3
